# Biological target: T1, human PDGFRα (Homo sapiens, UniProt P16234)
# T1 construct: HEL cells that endogenously express PDGFRα; endogenous in cells; host or cells: HEL human embryonic lung fibroblasts (ATCC)
# Assay: Human Phospho-PDGFRα ELISA
# Format: cell-based
# Details: HEL; Towne, AD169 and TR strains; IMC-3G3 10 μg/ml, 2 h pretreatment; HCMV MOI=1, 10 min
# Experimental: (A) HEL cells stimulated with HCMV or PDGF-AA were subjected to immunoprecipitation and western blot analyses with indicated antibodies. (B) Phospho-PDGFRα ELISA of cells+/−pretreatment with IMC-3G3 (10 μg/ml, 2 h) followed by HCMV (MOI=1) or PDGF (10 ng/ml) for 10 min. Mean values (n=6)±S.D are shown. (C) Western blot of HEL mock, HCMV, or PDGF-AA stimulated (10 min), +/−IMC-3G3 (2 μg/ml) or Gleevec® (Imatinib) (100 nM). The same membrane was used for p-Akt^Ser 473 and Akt.
# (A) Immunofluorescence detection of gB (upper panels) and PDGFRα (lower panels) in PDGFRα KO cells and PDGFRα overexpressing (OE) cells, following incubation with the gB peptide or mock treatment. Reduced PDGFRα surface staining in gB-treated cells is likely due to receptor internalization. (B) and (C) Immunoprecipitation of PDGFRα and gB from HEL lysates and full-length soluble gB alone or pre-incubated together. Immunoprecipitates were subjected to western blot with the indicated antibodies. (D) ELISA of hPDGFRα phosphorylation after HCMV stimulation (MOI=1), PDGF (10 ng/ml) or recombinant soluble gB (30 μg/ml) in presence or absence of gB neutralizing antibodies 7-17 and Mab 758 (5 μg/ml); bars, ±S.D. (E) Portions of same lysates used in (D) were analyzed by western blot with indicated antibodies.
# Human Phospho-PDGFRα ELISA. […] Reaction products were read using a microplate reader set at 450 nm. […]
# T1 sequence (P16234 24-1089): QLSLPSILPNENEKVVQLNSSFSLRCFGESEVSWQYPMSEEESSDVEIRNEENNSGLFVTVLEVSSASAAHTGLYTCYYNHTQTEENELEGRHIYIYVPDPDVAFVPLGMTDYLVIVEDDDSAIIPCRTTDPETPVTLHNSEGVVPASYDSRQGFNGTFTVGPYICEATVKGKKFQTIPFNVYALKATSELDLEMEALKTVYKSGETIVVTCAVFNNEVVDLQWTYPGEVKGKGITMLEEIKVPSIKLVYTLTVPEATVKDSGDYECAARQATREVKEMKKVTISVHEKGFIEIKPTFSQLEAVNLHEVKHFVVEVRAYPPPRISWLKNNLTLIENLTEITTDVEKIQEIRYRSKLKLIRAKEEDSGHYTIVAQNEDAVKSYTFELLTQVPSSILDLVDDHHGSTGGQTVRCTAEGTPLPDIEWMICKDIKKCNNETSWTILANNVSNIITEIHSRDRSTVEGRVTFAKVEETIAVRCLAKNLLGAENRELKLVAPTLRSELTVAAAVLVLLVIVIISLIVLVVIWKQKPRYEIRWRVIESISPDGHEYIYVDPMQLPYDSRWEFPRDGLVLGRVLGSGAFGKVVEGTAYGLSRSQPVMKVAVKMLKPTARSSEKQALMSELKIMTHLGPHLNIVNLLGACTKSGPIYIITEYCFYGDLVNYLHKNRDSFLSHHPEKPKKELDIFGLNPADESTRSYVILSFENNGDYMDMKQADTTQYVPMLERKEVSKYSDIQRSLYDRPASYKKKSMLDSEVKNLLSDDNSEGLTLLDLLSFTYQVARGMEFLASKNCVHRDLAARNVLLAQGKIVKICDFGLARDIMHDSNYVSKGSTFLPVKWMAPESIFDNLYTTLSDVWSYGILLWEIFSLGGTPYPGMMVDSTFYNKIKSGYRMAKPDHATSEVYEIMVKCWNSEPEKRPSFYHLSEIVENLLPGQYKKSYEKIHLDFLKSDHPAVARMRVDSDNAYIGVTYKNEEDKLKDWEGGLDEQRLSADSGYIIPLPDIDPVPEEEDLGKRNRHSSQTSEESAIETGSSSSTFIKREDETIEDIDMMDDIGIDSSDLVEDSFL
substance,measurement,value
IMC-3G3: humanized PDGFRα blocking antibody (ImClone Inc.),PDGFRα phosphorylation induced by HCMV strains,significantly inhibited
